Laboratory results published in the Human Domainome abundance scans (Beltran et al. 2025).
± gives the uncertainty stated by the source.

B1: Unconventional myosin-Ie, residues 1051 to 1108; numbered along this chain, Q12965 (parent)
chain: PQVPQCKALYAYDAQDTDELSFNANDIIDIIKEDPSGWWTGRLRGKQGLFPNNYVTKI

Variants of: B1
Experiment: abundance fitness (aPCA) (normalised: wild type 0, dead -1); higher = more abundant; growth selection in yeast, the domain comes from the species named
Conditions: Homo sapiens

In order of falling abundance fitness:
1. PQVPQCKALYDYDAQDTDELSFNANDIIDIIKEDPSGWWTGRLRGKQGLFPNNYVTKI [A11D]  0.102 ± 0.096
2. PQVPQCKALRAYDAQDTDELSFNANDIIDIIKEDPSGWWTGRLRGKQGLFPNNYVTKI [Y10R]  0.056 ± 0.036
3. PQVPQCKALYQYDAQDTDELSFNANDIIDIIKEDPSGWWTGRLRGKQGLFPNNYVTKI [A11Q]  0.045 ± 0.062
4. PQVPQCKALYRYDAQDTDELSFNANDIIDIIKEDPSGWWTGRLRGKQGLFPNNYVTKI [A11R]  0.025 ± 0.03
5. PQVPQCKALYNYDAQDTDELSFNANDIIDIIKEDPSGWWTGRLRGKQGLFPNNYVTKI [A11N]  0.022 ± 0.17
6. PQVPQCKALYPYDAQDTDELSFNANDIIDIIKEDPSGWWTGRLRGKQGLFPNNYVTKI [A11P]  0.019 ± 0.062
7. PQVPQCKALYHYDAQDTDELSFNANDIIDIIKEDPSGWWTGRLRGKQGLFPNNYVTKI [A11H]  -0.013 ± 0.078
8. PQVPQCKALYSYDAQDTDELSFNANDIIDIIKEDPSGWWTGRLRGKQGLFPNNYVTKI [A11S]  -0.023 ± 0.058
9. PQVPQCKALKAYDAQDTDELSFNANDIIDIIKEDPSGWWTGRLRGKQGLFPNNYVTKI [Y10K]  -0.043 ± 0.058
10. PQVPQCKALQAYDAQDTDELSFNANDIIDIIKEDPSGWWTGRLRGKQGLFPNNYVTKI [Y10Q]  -0.054 ± 0.057
11. PQVPQCKALYEYDAQDTDELSFNANDIIDIIKEDPSGWWTGRLRGKQGLFPNNYVTKI [A11E]  -0.059 ± 0.059
12. PQVPQCKALWAYDAQDTDELSFNANDIIDIIKEDPSGWWTGRLRGKQGLFPNNYVTKI [Y10W]  -0.092 ± 0.065
13. PQVPQCKALYARDAQDTDELSFNANDIIDIIKEDPSGWWTGRLRGKQGLFPNNYVTKI [Y12R]  -0.107 ± 0.037
14. PQVPQCKALVAYDAQDTDELSFNANDIIDIIKEDPSGWWTGRLRGKQGLFPNNYVTKI [Y10V]  -0.121 ± 0.04
15. PQVPQCKALYAYCAQDTDELSFNANDIIDIIKEDPSGWWTGRLRGKQGLFPNNYVTKI [D13C]  -0.134 ± 0.06
16. PQVPQCKALHAYDAQDTDELSFNANDIIDIIKEDPSGWWTGRLRGKQGLFPNNYVTKI [Y10H]  -0.135 ± 0.072
17. PQVPQCKALYMYDAQDTDELSFNANDIIDIIKEDPSGWWTGRLRGKQGLFPNNYVTKI [A11M]  -0.149 ± 0.037
18. PQVPQCKALYAWDAQDTDELSFNANDIIDIIKEDPSGWWTGRLRGKQGLFPNNYVTKI [Y12W]  -0.15 ± 0.039
19. PQVPQCKALYAYAAQDTDELSFNANDIIDIIKEDPSGWWTGRLRGKQGLFPNNYVTKI [D13A]  -0.156 ± 0.051
20. PQVPQCKALMAYDAQDTDELSFNANDIIDIIKEDPSGWWTGRLRGKQGLFPNNYVTKI [Y10M]  -0.158 ± 0.039
21. PQVPQCKALLAYDAQDTDELSFNANDIIDIIKEDPSGWWTGRLRGKQGLFPNNYVTKI [Y10L]  -0.16 ± 0.049
22. PQVPQCKALSAYDAQDTDELSFNANDIIDIIKEDPSGWWTGRLRGKQGLFPNNYVTKI [Y10S]  -0.166 ± 0.031
23. PQVPQCKALYGYDAQDTDELSFNANDIIDIIKEDPSGWWTGRLRGKQGLFPNNYVTKI [A11G]  -0.186 ± 0.055
24. PQVPQCKALYCYDAQDTDELSFNANDIIDIIKEDPSGWWTGRLRGKQGLFPNNYVTKI [A11C]  -0.193 ± 0.1
25. PQVPQCKALYTYDAQDTDELSFNANDIIDIIKEDPSGWWTGRLRGKQGLFPNNYVTKI [A11T]  -0.218 ± 0.076
26. PQVPQCKALTAYDAQDTDELSFNANDIIDIIKEDPSGWWTGRLRGKQGLFPNNYVTKI [Y10T]  -0.218 ± 0.055
27. PQVPQCKALYAHDAQDTDELSFNANDIIDIIKEDPSGWWTGRLRGKQGLFPNNYVTKI [Y12H]  -0.274 ± 0.12
28. PQVPQCKALYLYDAQDTDELSFNANDIIDIIKEDPSGWWTGRLRGKQGLFPNNYVTKI [A11L]  -0.308 ± 0.056
29. PQVPQCKALGAYDAQDTDELSFNANDIIDIIKEDPSGWWTGRLRGKQGLFPNNYVTKI [Y10G]  -0.309 ± 0.033
30. PQVPQCKALIAYDAQDTDELSFNANDIIDIIKEDPSGWWTGRLRGKQGLFPNNYVTKI [Y10I]  -0.364 ± 0.091
31. PQVPQCKALYAFDAQDTDELSFNANDIIDIIKEDPSGWWTGRLRGKQGLFPNNYVTKI [Y12F]  -0.377 ± 0.13
32. PQVPQCKALYFYDAQDTDELSFNANDIIDIIKEDPSGWWTGRLRGKQGLFPNNYVTKI [A11F]  -0.388 ± 0.12
33. PQVPQCKALYAEDAQDTDELSFNANDIIDIIKEDPSGWWTGRLRGKQGLFPNNYVTKI [Y12E]  -0.396 ± 0.12
34. PQVPQCKALNAYDAQDTDELSFNANDIIDIIKEDPSGWWTGRLRGKQGLFPNNYVTKI [Y10N]  -0.472 ± 0.1
35. PQVPQCKALYAKDAQDTDELSFNANDIIDIIKEDPSGWWTGRLRGKQGLFPNNYVTKI [Y12K]  -0.54 ± 0.12
36. PQVPQCKALYAMDAQDTDELSFNANDIIDIIKEDPSGWWTGRLRGKQGLFPNNYVTKI [Y12M]  -0.761 ± 0.15
37. PQVPQCKALYAADAQDTDELSFNANDIIDIIKEDPSGWWTGRLRGKQGLFPNNYVTKI [Y12A]  -0.803 ± 0.096
38. PQVPQCKALPAYDAQDTDELSFNANDIIDIIKEDPSGWWTGRLRGKQGLFPNNYVTKI [Y10P]  -0.821 ± 0.2
39. PQVPQCKALYATDAQDTDELSFNANDIIDIIKEDPSGWWTGRLRGKQGLFPNNYVTKI [Y12T]  -0.836 ± 0.15
40. PQVPQCKALYAQDAQDTDELSFNANDIIDIIKEDPSGWWTGRLRGKQGLFPNNYVTKI [Y12Q]  -0.887 ± 0.081
41. PQVPQCKALYAVDAQDTDELSFNANDIIDIIKEDPSGWWTGRLRGKQGLFPNNYVTKI [Y12V]  -0.891 ± 0.047
42. PQVPQCKALYALDAQDTDELSFNANDIIDIIKEDPSGWWTGRLRGKQGLFPNNYVTKI [Y12L]  -0.892 ± 0.08
43. PQVPQCKALYASDAQDTDELSFNANDIIDIIKEDPSGWWTGRLRGKQGLFPNNYVTKI [Y12S]  -0.909 ± 0.087
44. PQVPQCKALYAGDAQDTDELSFNANDIIDIIKEDPSGWWTGRLRGKQGLFPNNYVTKI [Y12G]  -0.937 ± 0.072
45. PQVPQCKALYAIDAQDTDELSFNANDIIDIIKEDPSGWWTGRLRGKQGLFPNNYVTKI [Y12I]  -0.966 ± 0.31
46. PQVPQCKALYACDAQDTDELSFNANDIIDIIKEDPSGWWTGRLRGKQGLFPNNYVTKI [Y12C]  -0.968 ± 0.086
